According to patent US20050036993A1, “Immune activation by double-stranded polynucleotides” (priority 1998, published 2005):

Columns and labels:
[1] = tested on: LMP2, TAP-1, invariant chain (Ii), HLA-DM, B7, CIITA, RFX5, IRF-1, PKR, IFN; test: Northern analysis of genes responsible for antigen presentation in FRTL-5 cells; type: cell-based, rat
Procedure: In some experiments, cells were treated with 100 U/ml rat KIFN for the last 48 hours of culture.
Transfection—All procedures used 10 cm dishes and transfection with Lipofectamine Plus (GIBCO BRL, Gaithersburg, Md.). […] Transfections with Lipofectamine (GIBCO BRL, Gaithersburg, Md.), with DEAE dextran, or using electroporation, performed as in Example 1, yielded the same results.
Nucleic Acids—The following polynucleotides were used in these experiments, both made by Pharmacia Biotech, Piscataway, N.J.: poly(dI)/poly(dC) and poly(I)/poly(C). The same results were obtained, however, using sonicated salmon sperm DNA (Stratagene, La Jolla, Calif.), bacterial DNA or calf thymus DNA (Sigma, St. Louis, Mo.), and FRTL-5 cell genomic DNA. […] Viral DNA from Human Herpes Simplex virus and viral DNA oligonucleotides from HIV, HTLV-1, Foamy virus, and cytomegalic virus (CMV) as well as the plasmid vectors pcDNA3 and pRc/RSV, used with or without methylation, also duplicated the results with the ds synthetic polynucleotides.
The probe for rat CIITA is a cloned rat Type III CIITA cDNA fragment in pcDNA3 (K. Suzuki et al., manuscript in preparation). EcoRI is used to release a 4098 bp fragment as the probe.

NF-PB = test: Gel shift analysis with NF-PB consensus ODN, nuclear protein of FRTL-5 cells; type: cell-based, rat; conditions: nuclear extracts; dsDNA within 3 hours
Procedure: Nuclear Extracts—A previously employed method to prepare nuclear extracts (S. Ikuyama et al., Mol. Endocrinol. 6:1701-1715 (1992)) was modified to prepare extracts from small numbers of cells. Cells were washed, scraped in 1 ml PBS, pelleted in a microfuge, and resuspended in five volumes of Buffer A (10 mM HEPES-KOH, pH 7.9, 10 mM KCl, 1.5 mM MgCl2, 0.1 mM EDTA) containing 0.3 M sucrose and 2% Tween 40. To release nuclei, they were frozen and thawed once, then repetitively pipetted, 50 to 100 times, using a micropipet with a yellow tip (200 T1 capacity). Samples were overlayed on 1 ml of 1.5 M sucrose in Buffer A and microfuged for 10 min at 4EC. Pelleted nuclei were washed with 1 ml Buffer A, centrifuged for 30 sec, then resuspended in 50 T1 of Buffer B (20 mM HEPES-KOH, pH 7.9, 420 mM NaCl, 1.5 mM MgCl2, 0.2 mM EDTA, 25% glycerol). Samples were placed on ice for 20 min with occasional vortexing and centrifuged for 20 min at 4EC. The supernatant fraction containing nuclear protein was aliquoted and stored at −70 C. […]
Electrophoretic Mobility Shift Analysis (EMSA)—Oligonucleotides were labeled with [K-^32P]ATP using T4 polynucleotide kinase, then purified on 8% native polyacrylamide gels (S. Ikuyama et al., Mol. Endocrinol. 6:1701-1715 (1992); H. Shimura, et al., Mol. Endocrinol. 8:1049-69 (1994)). […] Mixtures were analyzed on 5% native polyacrylamide gels and autoradiographed. […]

[2] = tested on: rat 90K tumor-associated immunostimulator; test: Northern analysis of 90K tumor-associated immunostimulator RNA in FRTL-5 cells; type: cell-based; conditions: 5 Tg nucleic acid or 100 U/ml KIFN, Northern after 48 hours
Text: 12: 19-33 (1998)). Filters were sequentially hybridized with the rat 90K, MHC Class I, MHC Class II, and GAPDH probes. […] The glyceraldehyde phosphate dehydrogenase (GAPDH) probe was cut from a pTRI-GAPDH-Rat template (Ambion, Tex.).

FRTL-5 rat thyroid cells = conditions: literature; cited from earlier work
[3] = tested on: MHC Class I, MHC Class II; test: Northern analysis of MHC Class I and Class II RNA after infection or transfection of FRTL-5 cells; conditions: 5 Tg nucleic acid transfected (Lipofectamine Plus), HSV-2 infection or KIFN, Northern 48 hours after treatment

B1: KIFN: K-interferon (gamma interferon, character lost), rat recombinant, 100 U/ml (protein, UniProt P01581 23-156, looked up)
Interferon gamma: QGTLIESLESLKNYFNSSSMDAMEGKSLLLDIWRNWQKDGNTKILESQIISFYLRLFEVLKDNQAISNNISVIESHLITNFFSNSKAKKDAFMSIAKFEVNNPQIQHKAVNELIRVIHQLSPESSLRKRKRSRC
expression of genes responsible for antigen presentation ([1]; 5 Tg dsDNA or 100 U/ml KIFN, 3 to 72 hours): induced
induction of CIITA, RFX5 and IRF-1 ([1]; 100 U/ml KIFN): induced
binding of p50/p65 and p50 homodimer to consensus NF-PB oligonucleotide binding site (NF-PB): significantly lesser level
90K RNA levels [2]: weaker
cell cycle progression (FRTL-5 rat thyroid cells): inhibits progression
MHC RNA levels / MHC expression (Class I and Class II) [3]: increases Class II more than Class I levels
